Positions of bridges follow the written chain, without caps; N, C: chain ends. No end group written: not given here.
Key:
[1] = target: human β-klotho (human, UniProt Q86Z14 1-1044); assay: cell-based or functional assay
[2] = target: β-klotho of differentiated 3T3-L1 adipocytes (mouse) (UniProt Q99N32); assay: cell-based or functional assay
[3] = target: human NPY Y4 receptor (human, UniProt P50391 1-375); assay: cell-based or functional assay
[4] = target: T1, rhesus serum albumin (rhesus, UniProt Q28522 17-600); assay: SPR (Biacore), albumin immobilized on CM5 chip
T1 construct: also called RhSA
Method: (§3) In addition, binding to albumin was carried out under various pH conditions ranging from pH 5.5 to pH 7.4.

[5] = target: T2, human serum albumin (human, UniProt P02768 25-609); assay: SPR (Biacore), albumin immobilized on CM5 chip
T2 construct: also called HSA; HuSA
Method: as §3

[6] = target: T3, murine serum albumin (mouse, UniProt P07724 25-608); assay: SPR (Biacore), albumin immobilized on CM5 chip
T3 construct: also called MuSA; mouse serum albumin
Method: as §3

[7] = target: Amylin receptor (chimpanzee; human, UniProt O60894 27-148); assay: cell-based or functional assay
[8] = target: T2, human serum albumin; assay: SPR (ProteOn XPR36), HSA immobilized on GLC chip, 25 C
Method: (§1) Surface Plasmon Resonance (SPR) is a direct binding technique by which molecular interactions can be observed in real time. For these experiments, SPR binding studies were performed using a ProteOn XPR36 instrument (BioRad Laboratories). The running buffer, phosphate buffered saline 0.05% Tween 20 pH 7.4, was purchased from Teknova (cat #P1192) and all experiments were run at 25° C. Human serum albumin was directly immobilized on a BioRad GLC chip via amine coupling as per manufacturer's guidelines using amine coupling reagents purchased from BioRad Laboratories. Human serum albumin was purchased from Novozymes (Recombumin™). About 5000 resonance units (RU) of human serum albumin were immobilized onto 4 separate lanes of the GLC chip surface. […] The dissociation was monitored for 600 seconds. The surface was regenerated with 100 mM HCl. The resultant data were fitted to a Langumuir 1:1 binding model using the ProteOn Manager Software. The experiment was repeated with a different concentration range. In this second experiment, 5 concentrations ranging from 500 nM to 32 nM were injected over the surfaces, and the data analyzed as above. The KD is the disassociation constant. Smaller numbers indicate tighter binding to serum albumin.

[9] = target: T2, human serum albumin; assay: Affinity for hSA by SPR (same value as in Table 21)
Method: as §1

[10] = target: T4, human NPY Y2 receptor (human, UniProt P49146 1-381); assay: cell-based or functional assay
T4 sequence (looked up): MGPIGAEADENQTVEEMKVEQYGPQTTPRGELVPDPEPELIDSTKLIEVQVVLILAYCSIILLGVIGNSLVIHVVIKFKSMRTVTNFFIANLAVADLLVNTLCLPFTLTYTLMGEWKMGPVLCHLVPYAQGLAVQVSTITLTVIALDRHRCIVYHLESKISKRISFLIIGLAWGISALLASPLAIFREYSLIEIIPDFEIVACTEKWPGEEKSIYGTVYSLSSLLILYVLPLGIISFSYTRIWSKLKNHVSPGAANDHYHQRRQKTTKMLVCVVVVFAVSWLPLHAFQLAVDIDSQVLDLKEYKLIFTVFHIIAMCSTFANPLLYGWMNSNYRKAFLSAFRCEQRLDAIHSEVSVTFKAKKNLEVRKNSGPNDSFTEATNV

[11] = target: T2, human serum albumin; assay: SPR (Biacore T100), HSA immobilized, 37 C, 60 µl/min
Method: (§2) Serum albumins were dissolved in PBS buffer (10 mM sodium phosphate, 130 mM sodium chloride, pH 7.1) to a concentration of 10 mg/ml, and subsequently diluted to 8-10 μg/ml in 10 mM sodium acetate pH 5.0 for immobilization. Serum albumins were immobilized on a Series S CM5 sensor chip using standard ethyl(dimethylaminopropyl) carbodiimide (EDC)/N-hydroxysuccinimide (NHS) chemistry in HBS-EP+ running buffer at 25° C., following general manufacturer guidelines. Flow cell 1 was activated with EDC/NHS and blocked with ethanolamine. […] Kinetic experiments were performed in PBS buffer containing 0.05% tween-20 (running buffer) at either 25° C. or 37° C. […] These samples were injected across flow cells 1-4 for 300 s, with a 420 s dissociation time, at flow rates of 30 μl/min or 60 μl/min to check for mass transfer limitation. All surfaces were regenerated with 2 pulses of 10 mM glycine pH 2.0 at 30 μl/min for 30 s. Raw sensograms were “double-referenced” by subtracting flow cell 1 data from flow cell 2, 3 or 4 data, and then subtracting a separate buffer cycle from each sensogram. The double-referenced sensogram data was fitted to a 1:1 Langmuir model using Biacore T100 Evaluation software version 2.0.2 to determine the association rate constant (ka), the dissociation rate constant (kd), and the equilibrium dissociation constant (KD).

[12] = target: T3, murine serum albumin; assay: SPR (Biacore T100), immobilized MuSA, analyte series 1000 to 62.5 nM, 37 C
Method: as §2

[13] = target: T2, human serum albumin; assay: SPR (Biacore T100), HSA immobilized, 37 C, 30 µl/min
Method: as §2

[14] = target: T5, cynomolgous monkey serum albumin (cynomolgous monkey, UniProt A2V9Z4 25-608); assay: SPR (Biacore T100), CySA immobilized, 37 C, 60 µl/min
T5 construct: also called CySA
Method: as §2

[15] = target: T5, cynomolgous monkey serum albumin; assay: SPR (Biacore T100), CySA immobilized, 37 C, 30 µl/min
Method: as §2

T1 sequence (Q28522 17-600 limits assumed): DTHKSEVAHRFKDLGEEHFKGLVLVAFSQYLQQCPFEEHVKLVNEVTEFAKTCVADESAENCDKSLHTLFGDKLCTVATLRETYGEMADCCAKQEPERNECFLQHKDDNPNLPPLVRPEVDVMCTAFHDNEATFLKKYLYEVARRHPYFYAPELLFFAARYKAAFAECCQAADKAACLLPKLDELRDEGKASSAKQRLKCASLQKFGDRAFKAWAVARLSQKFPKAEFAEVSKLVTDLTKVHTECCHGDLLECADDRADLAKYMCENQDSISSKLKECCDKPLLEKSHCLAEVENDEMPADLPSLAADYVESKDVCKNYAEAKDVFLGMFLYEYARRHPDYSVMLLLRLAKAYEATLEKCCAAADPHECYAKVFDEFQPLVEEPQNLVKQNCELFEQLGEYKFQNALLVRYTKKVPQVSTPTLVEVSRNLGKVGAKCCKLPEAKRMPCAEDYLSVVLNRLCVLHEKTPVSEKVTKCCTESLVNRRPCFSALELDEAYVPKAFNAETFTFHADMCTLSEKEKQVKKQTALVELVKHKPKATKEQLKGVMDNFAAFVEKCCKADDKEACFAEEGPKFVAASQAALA
T5 sequence (A2V9Z4 25-608 limits assumed): as the sequence (Q28522 17-600 limits assumed) above
T3 sequence (P07724 25-608 limits assumed): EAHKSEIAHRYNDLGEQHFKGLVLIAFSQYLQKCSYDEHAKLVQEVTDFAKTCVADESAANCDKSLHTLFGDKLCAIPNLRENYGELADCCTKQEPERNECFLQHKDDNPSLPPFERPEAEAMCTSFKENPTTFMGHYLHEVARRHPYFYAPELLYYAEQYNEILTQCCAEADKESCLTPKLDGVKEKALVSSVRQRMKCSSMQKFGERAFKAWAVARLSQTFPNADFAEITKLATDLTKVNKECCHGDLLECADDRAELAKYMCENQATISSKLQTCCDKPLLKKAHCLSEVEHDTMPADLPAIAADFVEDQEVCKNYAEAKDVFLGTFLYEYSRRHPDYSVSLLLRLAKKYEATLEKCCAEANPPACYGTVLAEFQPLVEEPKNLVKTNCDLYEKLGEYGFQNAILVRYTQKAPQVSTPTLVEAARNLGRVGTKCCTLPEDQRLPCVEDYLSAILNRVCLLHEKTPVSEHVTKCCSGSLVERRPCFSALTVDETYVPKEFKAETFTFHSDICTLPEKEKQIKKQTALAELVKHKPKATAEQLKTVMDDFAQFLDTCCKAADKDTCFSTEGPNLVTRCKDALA
Amylin receptor, sequence (O60894 27-148): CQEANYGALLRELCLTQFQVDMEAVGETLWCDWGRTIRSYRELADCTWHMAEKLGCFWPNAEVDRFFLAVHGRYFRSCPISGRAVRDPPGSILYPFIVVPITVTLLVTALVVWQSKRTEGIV
human NPY Y4 receptor, sequence (P50391 whole entry): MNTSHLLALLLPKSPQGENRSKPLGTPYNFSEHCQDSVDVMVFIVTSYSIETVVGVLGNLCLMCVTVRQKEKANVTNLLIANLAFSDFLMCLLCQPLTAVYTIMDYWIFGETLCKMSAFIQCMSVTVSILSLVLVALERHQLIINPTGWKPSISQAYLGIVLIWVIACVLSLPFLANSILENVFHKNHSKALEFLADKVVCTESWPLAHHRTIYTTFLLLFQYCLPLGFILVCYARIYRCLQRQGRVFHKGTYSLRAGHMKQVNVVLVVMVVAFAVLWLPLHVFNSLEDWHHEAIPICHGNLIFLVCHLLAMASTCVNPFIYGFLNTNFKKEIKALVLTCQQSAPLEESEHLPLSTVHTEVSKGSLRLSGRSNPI
β-klotho of differentiated 3T3-L1 adipocytes (mouse), sequence (Q99N32 whole entry): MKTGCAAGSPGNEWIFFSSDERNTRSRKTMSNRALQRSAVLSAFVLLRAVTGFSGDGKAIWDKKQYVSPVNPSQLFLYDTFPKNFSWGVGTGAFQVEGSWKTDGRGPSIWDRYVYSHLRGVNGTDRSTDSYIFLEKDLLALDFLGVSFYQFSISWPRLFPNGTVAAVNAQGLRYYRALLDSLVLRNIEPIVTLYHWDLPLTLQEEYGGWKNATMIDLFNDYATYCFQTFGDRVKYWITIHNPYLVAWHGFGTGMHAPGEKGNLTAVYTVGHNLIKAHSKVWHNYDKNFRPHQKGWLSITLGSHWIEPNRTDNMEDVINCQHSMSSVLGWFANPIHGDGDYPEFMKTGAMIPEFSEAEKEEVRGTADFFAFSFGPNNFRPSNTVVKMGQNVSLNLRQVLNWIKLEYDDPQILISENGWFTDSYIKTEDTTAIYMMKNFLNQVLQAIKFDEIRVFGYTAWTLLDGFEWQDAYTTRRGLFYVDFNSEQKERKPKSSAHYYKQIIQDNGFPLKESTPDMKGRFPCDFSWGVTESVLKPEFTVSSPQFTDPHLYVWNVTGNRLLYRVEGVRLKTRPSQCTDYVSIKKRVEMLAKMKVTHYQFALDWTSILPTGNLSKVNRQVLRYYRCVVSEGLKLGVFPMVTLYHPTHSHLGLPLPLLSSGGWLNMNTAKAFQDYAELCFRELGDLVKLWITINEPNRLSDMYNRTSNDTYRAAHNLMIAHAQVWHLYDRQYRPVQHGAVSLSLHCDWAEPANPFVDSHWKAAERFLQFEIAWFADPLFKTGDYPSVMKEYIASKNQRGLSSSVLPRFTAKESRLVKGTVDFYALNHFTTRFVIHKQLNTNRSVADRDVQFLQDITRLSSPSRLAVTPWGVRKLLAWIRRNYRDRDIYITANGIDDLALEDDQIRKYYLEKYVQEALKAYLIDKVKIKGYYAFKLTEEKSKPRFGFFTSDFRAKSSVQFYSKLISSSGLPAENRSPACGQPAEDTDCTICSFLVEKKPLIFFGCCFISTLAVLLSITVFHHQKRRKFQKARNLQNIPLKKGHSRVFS

His-tagged FGF21 (from UniProt Q9NSA1 29-209) (ligand)
EC50 (nM), pERK 1/2 assay in HEK β-Klotho expressing stable cells [1]: 7 nM | Efficacy (%), pERK 1/2 assay in HEK β-Klotho expressing stable cells [1]: 100% | EC50 (nM), pERK assay in 3T3-L1 adipocytes [2]: 4 nM | Fold Activation, pERK assay in 3T3-L1 adipocytes [2]: 2.1 fold

B1: PP Control Peptide (peptide)
peptide: APLEPMYPGDYATPEQMAQYETQLRRYINTLTRPRY-NH2
Potency (EC50, nM), GTPγS binding functional assay [3]: 1.7 nM

B2: SABA3.1 (designed binder)
chain: MGVSDVPRDLEVVAATPTSLLISWSNDGPGLSYYRITYGETGGNSPVQEFTVPSSQTTATISGLKPGVDYTITVYAVSYYTKKAYSAGPISINYRTEIDKPSQHHHHHH
notes: His6-tagged Adnectin core 3
Kd [4]: 431 nM | koff [4]: 0.0337 s⁻¹ | Kd [5]: 863 nM | koff [5]: 0.0682 s⁻¹ | binding result [6]: no binding

B3: Amylin Control Peptide (peptide)
peptide: KCNTATCATQRLANFLVRSSNNLGPVLPPTNVGSNTY-NH2
modifications: disulfide 2-7
Efficacy (% of native peptide ligand maximal activity), cellular cAMP assay [7]: 100%

B4: SABA1-AMYv25 (designed binder)
chain: MGVSDVPRDLEVVAATPTSLLISWHSYYEQNSYYRITYGETGGNSPVQEFTVPYSQTTATISGLKPGVDYTITVYAVYGSKYYYPISINYRTEIEDEDEDEDEDGC
modifications: Maleimide-PEG20 spacer (X1) between the Cys after (ED)5G and AMYv5 (rat amylin); C-terminal amidation; disulfide bridge between the two Cys residues of amylin
notes: also called SABA-Amylin-CONH2 conjugate; SABA1.7-(ED)5G-Cys-PEG20-Amylin-CONH2
Cell based Potency (EC50, nM), cellular cAMP assay [7]: 12.2 nM | Efficacy (% of native peptide ligand maximal activity), cellular cAMP assay [7]: 119% | Kd [8]: 25.8 nM | koff [8]: 0.000241 s⁻¹ | kon [8]: 9340 M⁻¹ s⁻¹ | Kd [9]: 25.8 nM

B5: SABA1-PYYv7 (designed binder)
chain: MGVSDVPRDLEVVAATPTSLLISWHSYYEQNSYYRITYGETGGNSPVQEFTVPYSQTTATISGLKPGVDYTITVYAVYGSKYYYPISINYRTEIEDEDEDEDEDGC
modifications: Maleimide-PEG20 spacer (X1) between the Cys after (ED)5G and PYYv17 (mouse PYY3-36); C-terminal amidation
notes: also called SABA-PYY3-36-CONH2 conjugate; SABA1.7-(ED)5G-Cys-PEG20-PYY-CONH2
Potency (EC50, nM), GTPγS binding functional assay [10]: 52 nM | Kd [8]: 22.5 nM | koff [8]: 0.000208 s⁻¹ | kon [8]: 9290 M⁻¹ s⁻¹ | Kd [9]: 22.5 nM

B6: SABA1-PPv7 (designed binder)
chain: MGVSDVPRDLEVVAATPTSLLISWHSYYEQNSYYRITYGETGGNSPVQEFTVPYSQTTATISGLKPGVDYTITVYAVYGSKYYYPISINYRTEIEDEDEDEDEDGC
modifications: Maleimide-PEG20 spacer (X1) between the Cys after (ED)5G and PPv9 (mouse PP); C-terminal amidation
notes: also called SABA-PP-CONH2 conjugate; SABA1-APPv7
Potency (EC50), GTPγS binding functional assay [3]: > 1000 nM | Kd [8]: 18.8 nM | koff [8]: 0.000142 s⁻¹ | kon [8]: 7880 M⁻¹ s⁻¹ | Kd [9]: 18.8 nM

B7: SABA1.1 (designed binder)
chain: MGVSDVPRDLEVVAATPTSLLISWHSYYEQNSYYRITYGETGGNSPVQEFTVPYSQTTATISGLKPGVDYTITVYAVYGSKYYYPISINYRTEIDKPSQHHHHHH
Kd [4]: 778 nM | koff [4]: 0.00545 s⁻¹ | Kd [5]: 47.2 nM | koff [5]: 0.000457 s⁻¹ | binding result [6]: no binding

B8: SABA2.1 (designed binder)
chain: MGVSDVPRDLEVVAATPTSLLISWPKYDKTGHYYRITYGETGGNSPVQEFTVPTRQTTATISGLKPGVDYTITVYAVSKDDYYPHEHRPISINYRTEIDKPSQHHHHHH
notes: His6-tagged Adnectin core 2
Kd [4]: 63.6 nM | koff [4]: 0.000442 s⁻¹ | Kd [5]: 33.8 nM | koff [5]: 0.000171 s⁻¹ | binding result [6]: no binding

B9: SABA4.1 (designed binder)
chain: MGVSDVPRDLEMVAATPTSLLISWEDDSYYSRYYRITYGETGGNSPVQEFTVPSDLYTATISGLKPGVDYTITVYAVTYDVTDLIMHEPISINYRTEIDKPSQHHHHHH
notes: His6-tagged Adnectin core 4; has a scaffold mutation; the scaffold-perfect version is SABA5
Kd [4]: > 1000 nM | koff [4]: 0.00383 s⁻¹ | Kd [5]: 412 nM | koff [5]: 0.000782 s⁻¹ | binding result [6]: no binding

B10: SABA1-FGF21v3 (designed binder)
chain: MGVSDVPRDLEVVAATPTSLLISWHSYYEQNSYYRITYGETGGNSPVQEFTVPYSQTTATISGLKPGVDYTITVYAVYGSKYYYPISINYRTEIDKPSQHHHHHHGSGSGSGSGSGSGSPIPDSSPLLQFGGQVRQRYLYTDDAQQTEAHLEIREDGTVGGAADQSPESLLQLKALKPGVIQILGVKTSRFLCQRPDGALYGSLHFDPEACSFRELLLEDGYNVYQSEAHGLPLHLPGNKSPHRDPAPRGPARFLPLPGLPPALPEPPGILAPQPPDVGSSDPLSMVGPSQGRSPSYAS
notes: Fusion of SABA1 and FGF21; also called SABA1-FGF21 variant 3
Kd [11]: 180 nM | koff [11]: 0.00107 s⁻¹ | kon [11]: 5870 M⁻¹ s⁻¹ | binding result [12]: no binding (tested: 1000 nM) | Kd [13]: 170 nM | koff [13]: 0.00103 s⁻¹ | kon [13]: 6160 M⁻¹ s⁻¹ | Kd [14]: 3100 nM | koff [14]: 0.0136 s⁻¹ | kon [14]: 4380 M⁻¹ s⁻¹ | Kd [15]: 2200 nM | koff [15]: 0.0117 s⁻¹ | kon [15]: 5310 M⁻¹ s⁻¹

— patent US20190203248A1 (Bristol-Myers Squibb, published 2019)
